# Assay results as given in patent US20200190189A1 (Adimab, published 2020).
# T1: Cynomolgus CD3εδ heterodimeric Fc fusion (Cy CD3εδ Fc) (cynomolgus)
# T1 chain 1: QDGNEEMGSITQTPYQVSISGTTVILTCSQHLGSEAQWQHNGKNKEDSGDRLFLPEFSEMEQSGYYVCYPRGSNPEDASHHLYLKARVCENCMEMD
# T1 chain 2: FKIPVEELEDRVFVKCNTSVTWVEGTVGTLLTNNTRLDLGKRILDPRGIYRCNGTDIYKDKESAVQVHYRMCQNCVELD
# T2: Human CD3εδ heterodimeric Fc fusion (Hu CD3εδ Fc) (human)
# T2 chain 1: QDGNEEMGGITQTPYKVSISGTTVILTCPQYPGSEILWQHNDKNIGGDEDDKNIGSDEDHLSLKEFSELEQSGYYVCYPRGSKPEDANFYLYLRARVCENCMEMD
# T2 chain 2: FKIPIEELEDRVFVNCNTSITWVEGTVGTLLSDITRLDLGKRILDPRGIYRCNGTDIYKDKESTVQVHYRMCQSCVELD
# Experiments:
# [1] = biological target: T1, Cynomolgus CD3εδ heterodimeric Fc …; assay: IgG, avid; method not named at the table (ForteBio BLI in Methods)
# [2] = biological target: T2, Human CD3εδ heterodimeric Fc fusion (Hu …); assay: as above
Binder,Kd [1] [nM],Kd [2] [nM]
"ADI-22523 IgG1 (antibody, V domains shown) VH: QVQLVQSGAEVKKPGASVKVSCKASGFNIKDYYMHWVRQAPGQRLEWMGWIDLENGNTIYDPKFQGRVTITRDTSASTAYMELSSLRSEDTAVYYCARDGYGRYFYDVWGQGTLVTVSS VL: DIVMTQSPDSLAVSLGERATINCKSSQSLLNSRTGKNYLAWYQQKPGQPPKLLIYWASTRESGVPDRFSGSGSGTDFTLTISSLQAEDVAVYYCKQSYSRRTFGGGTKVEIK",0.22,0.2
"ADI-26906 IgG1 (antibody, V domains shown) VH: QVQLVQSGAEVKKPGASVKVSCKASGFNIKDYYMHWVRQAPGQRLEWMGWIDLENANTIYDAKFQGRVTITRDTSASTAYMELSSLRSEDTAVYYCARDAYGRYFYDVWGQGTLVTVSS VL: DIVMTQSPDSLAVSLGERATINCKSSQSLLNARTGKNYLAWYQQKPGQPPKLLIYWASTRESGVPDRFSGSGSGTDFTLTISSLQAEDVAVYYCKQSYSRRTFGGGTKVEIK",0.25,1.6

# The next lines start with the values.
Kd [1] [nM],Kd [2] [nM],Binder
2.6,3.3,"ADI-26915 IgG1 (antibody, V domains shown) VH: QVQLVQSGAEVKKPGASVKVSCKASGFNIKDYYMHWVRQAPGQRLEWMGWIDLEEGNTIYDAKFQGRVTITRDTSASTAYMELSSLRSEDTAVYYCARDVLGRYFYDVWGQGTLVTVSS VL: DIVMTQSPDSLAVSLGERATINCKSSQSLLNARTGKNYLAWYQQKPGQPPKLLIYWASTRESGVPDRFSGSGSGTDFTLTISSLQAEDVAVYYCKQSYSRRTFGGGTKVEIK"
0.4,2.2,"ADI-26913 IgG1 (antibody, V domains shown) VH: QVQLVQSGAEVKKPGASVKVSCKASGFNIKDYYMHWVRQAPGQRLEWMGWIDLENANTIYDAKFQGRVTITRDTSASTAYMELSSLRSEDTAVYYCARDQYGRYFYDVWGQGTLVTVSS VL: DIVMTQSPDSLAVSLGERATINCKSSQSLLNARTGKNYLAWYQQKPGQPPKLLIYWASTRESGVPDRFSGSGSGTDFTLTISSLQAEDVAVYYCKQSYSRRTFGGGTKVEIK"
0.31,1.5,"ADI-26908 IgG1 (antibody, V domains shown) VH: QVQLVQSGAEVKKPGASVKVSCKASGFNIKDYYMHWVRQAPGQRLEWMGWIDLEEGNTIYDAKFQGRVTITRDTSASTAYMELSSLRSEDTAVYYCARDAYGRYFYDVWGQGTLVTVSS VL: DIVMTQSPDSLAVSLGERATINCKSSQSLLNARTGKNYLAWYQQKPGQPPKLLIYWASTRESGVPDRFSGSGSGTDFTLTISSLQAEDVAVYYCKQSYSRRTFGGGTKVEIK"
